According to PMC10812501, “Repurposing Glutathione Transferases: Directed Evolution Combined with Chemical Modification for the Creation of a Semisynthetic Enzyme with High Hydroperoxidase Activity” (Antioxidants, 2023):
Changes are numbered by the printed parent chain. Names and notes keep the numbering of the source.

Columns and labels:
[1] = substrate: CC(C)(OO)c1ccccc1; assay: steady-state kinetics, coupled glutathione reductase/NADPH hydroperoxidase assay; assay type: biochemical, Glycine max; settings: GSH 1.0 mM fixed, sodium phosphate 50 mM pH 7.0, 1 mM EDTA
Source text: steady-state kinetics, coupled glutathione reductase/NADPH hydroperoxidase assay on GmGSTU4-4

[2] = substrate: CC(C)(OO)c1ccccc1; assay: as above; assay type: biochemical, Glycine max; settings: Sh14 shuffled variant, GSH 1.0 mM fixed, sodium phosphate 50 mM pH 7.0, 1 mM EDTA

B1: GmGSTU4-4 (Glycine max) (protein)
chain: MSDEVVLLDFWPSPFGMRVRIALAEKGIKYEYKEEDLRNKSPLLLQMNPVHKKIPVLIHNGKPICESLIAVQYIEEVWNDRNPLLPSDPYQRAQTRFWADYVDKKIYDLGRKIWTSKGEEKEAAKKEFIEALKLLEEQLGDKTYFGGDNLGFVDIALVPFYTWFKAYETFGTLNIESECPKFIAWAKRCLQKESVAKSLPDQQKVYEFIMDLRKKLGIE
notes: dimer; Sh14 = shuffled variant differing by four point changes (R38Q/Q46K/W114C/I183V)
In the case of B1, the Km [1] is reported as 454.3 ± 83.6 µM and the kcat [1] is reported as 0.178 ± 0.0167 s⁻¹.

B2: GmGSTU4-4 (Glycine max; I183V/Q46K/R38Q/W114C) (protein)
chain: B1 chain with R38Q, Q46K, W114C, I183V
notes: as for B1
Work on B2 yielded a Km [2] of 255.8 ± 46.4 µM and a kcat [2] of 0.593 ± 0.0617 s⁻¹.
